# Experimental data taken from paper PMC3335848, “Characterization of Multi-Functional Properties and Conformational Analysis of MutS2 from Thermotoga maritima MSB8” (PLoS ONE, 2012).
# B1: Thermotoga maritima MutS2 (enzyme, Thermotoga maritima MSB8, UniProt Q9X105 1-757, looked up)
# chain: MDYLESLDFPKVVEIVKKYALSDLGRKHLDTLKPTVNPWDELELVEELLNYFNRWGEPPIKGLNDISQEVEKVKSGSPLEPWELLRVSVFLEGCDILKKEFEKREYSRLKETFSRLSSFREFVEEVNRCIEQDGEISDRASPRLREIRTEKKRLSSEIKRKADDFVRTHSQILQEQMYVYRDGRYLFPVKASMKNAVRGIVHHLSSSGATVFLEPDEFVELNNRVRLLEEEERLEISRILRQLTNILLSRLNDLERNVELIARFDSLYARVKFAREFNGTVVKPSSRIRLVNARHPLIPKERVVPINLELPPNKRGFIITGPNMGGKTVTVKTVGLFTALMMSGFPLPCDEGTELKVFPKIMADIGEEQSIEQSLSTFSSHMKKIVEIVKNADSDSLVILDELGSGTDPVEGAALAIAIIEDLLEKGATIFVTTHLTPVKVFAMNHPLLLNASMEFDPETLSPTYRVLVGVPGGSHAFQIAEKLGLDKRIIENARSRLSREEMELEGLIRSLHEKISLLEEEKRKLQKEREEYMKLREKYEEDYKKLRRMKIEEFDKELRELNDYIRKVKKELDQAIHVAKTGSVDEMREAVKTIEKEKKDLEQKRIEEATEEEIKPGDHVKMEGGTSVGKVVEVKSGTALVDFGFLRLKVPVSKLRKTKKEEKKETSTFSYKPSSFRTEIDIRGMTVEEAEPVVKKFIDDLMMNGISKGYIIHGKGTGKLASGVWEILRKDKRVVSFRFGTPSEGGTGVTVVEVKV
# notes: MutS2 of Thermotoga maritima MSB8, gene amplified from genomic DNA; 89 kDa; residue numbers run to 757; Vector pET-28aTEV; also called TmMutS2; apo-TmMutS2; source: E. coli BL21 (DE3), purified (heat step at 65°C, Ni-NTA, TEV cleavage, Heparin Hitrap HP, Superdex 200 HR)
# B2: Four-way junction (FWJ, DNA 3) (structured_DNA)
# DNA 1: GACGCTGCCGAATCCTACCAGTGCCTTGCTAGGACATCTTTGCCCACCTGCAGGTCACCC
# DNA 2: TGGGTGAACCTGCAGGTGGGCAAAGATGTCCTAGCAATGTAATCGTCAAGCTTTATGCCGTT
# DNA 3: ATCGATAGTCGGATCCTCTAGACAGCATGTCCTAGCAAGGCACTGGTAGAATTCGGCAGCGT
# DNA 4: CAACGGCATAAAGCTTGACGATTACATTGCTAGGACATGCTGTCTAGAGGATCCGACTATCGA
# B3: Flayed (DNA 4, fork) (structured_DNA)
# DNA 1: AACGGCATAAAGCTTGACGATTACATTGCTAGGACATGCTGTCTAGAGGATCCGACTATCGA
# DNA 2: B2 DNA 2
# Key:
# [1] = biological target: the molecule itself; assay: AUC; sedimentation velocity, 20°C, 40000 rpm, 24 h, absorbance at 280 nm, C(s) method
# [2] = biological target: T1, TmMutS2 (Thermotoga maritima MSB8, UniProt Q9X105 1-757); assay: EMSA; no ATP; 0-2 uM protein; strongest binding among the DNAs; EMSA: 25 mM Hepes-NaOH pH 7.5, 200 mM NaCl, 0.5 mM EDTA, 37 C, 1 h; DNA 1 uM, TmMutS2 0-2 uM, +/- 1 mM ATP; conditions: protein: recombinant; tags: His-tag removed with TEV protease (pET-28aTEV); chain copies: 2; label: 5'-32P (EMSA); four-way junction of 4 strands
# T1 sequence: B1 chain
# [3] = biological target: T1, TmMutS2; assay: EMSA; no ATP; stronger than linear and overhang; EMSA: 25 mM Hepes-NaOH pH 7.5, 200 mM NaCl, 0.5 mM EDTA, 37 C, 1 h; DNA 1 uM, TmMutS2 0-2 uM, +/- 1 mM ATP; conditions: protein: recombinant; tags: His-tag removed with TEV protease (pET-28aTEV); chain copies: 2; label: 5'-32P; fork; S19[1-37] paired with 3' part of S16, both other arms unpaired
binder,measurement,setting,value
B1,stoichiometry N,[1],2
B2,binding result,[2],binds
B3,binding result,[3],binds
